Experiments:
PeWRKY1 [1] = molecular target: T1, PeWRKY1 (Populus euphratica, UniProt A0AAJ6U0E7 1-595); assay: EMSA
PeWRKY1 [2] = molecular target: T1, PeWRKY1; assay: competition
PeWRKY1 [3] = molecular target: T1, PeWRKY1; assay: competition; remark: listed apart in the source

B1: PeHA1 promoter W-box probe (dsDNA)
DNA 1: CCCTATCGGGCAAGATTTGACCCGCCCGAGTTGATCCCTC
DNA 2: GAGGGATCAACTCGGGCGGGTCAAATCTTGCCCGATAGGG
binding result (PeWRKY1 [1]): binds

B2: PeHA1 promoter W-box unlabeled competitor (dsDNA)
DNA 1: CCCTATCGGGCAAGATTTGACCCGCCCGAGTTGATCCCTC
DNA 2: GAGGGATCAACTCGGGCGGGTCAAATCTTGCCCGATAGGG
binding result (PeWRKY1 [2]): binds

B3: W-box mutant probe (TTGACC to TTAGCC) (dsDNA)
DNA 1: CCCTATCGGGCAAGATTTAGCCCGCCCGAGTTGATCCCTC
DNA 2: GAGGGATCAACTCGGGCGGGCTAAATCTTGCCCGATAGGG
binding result (PeWRKY1 [3]): no binding
